Assay [1] has as its target lymphocytic lactoferrin receptor on Jurkat T lymphoblastic cells. As to the kind of experiment: 125I-labelled ligand binding to Jurkat cells at 4° C., Scatchard analysis.
For assay [2] the target is unchanged. As to the kind of experiment: 125I-labelled ligand on Jurkat cells with 100 molar excess of non-labelled native Lf.
The target of assay [3] is enterocytic lactoferrin receptor on HT-29-18C1 enterocytic cells (human). Briefly: 125I-labelled ligand binding to HT-29-18C1 cells on ice, Scatchard analysis.
Assay [4] has the same target. Briefly: 125I-labelled ligand on HT29 cells with 100 molar excess of non-labelled native Lf.

On to “human lactoferrin isolated from human milk (from UniProt P02788 20-710) (ligand)”, for which the Kd (as a rule, the free concentration of one partner at which half of the binding sites on the other are occupied at equilibrium, for simple one-to-one binding) in assay [1] turned out to be 89.7 nM; in assay [3], 1000 nM. Also, the non-specific binding as share of total binding in assay [2] and in assay [4] was 25% each time. The substance further gave a sites per cell (sites per cell) in assay [3] of 4e+06.
For “recombinant human lactoferrin rhLf2 from pBIOC21-PSSp-Lf, purified from tobacco leaves (transformant T30) (from UniProt P02788 20-710) (ligand)”, the Kd in assay [1] is 80.3 nM; in assay [3] it was 800 nM. The non-specific binding as share of total binding in assay [2] and in assay [4] was 25% each time. This substance also displayed a sites per cell (sites per cell) in assay [3] of 1.8e+06.

(Values after patent US8334254.)
